Data on 2 substances can be found in paper PMC12099300.

One assay concerns the target atezolizumab. Briefly: ELISA; antibodies coated on MaxiSorp plates (5 µg/mL, 50 µL, overnight 4°C), blocked with 1% BSA; PD-L1 or VISTA 50-0.0003 µg/mL in PBS, 1 h RT; detected by anti-His-tag antibody and Strep-HRP; EC50 by nonlinear regression. On the technique in general: An ELISA detects its analyte on a solid surface through an enzyme-linked reagent.
Another assay addresses onvatilimab. The assay is described as above.

onvatilimab, sequence (heavy, as listed by the source, chain 1 of 2): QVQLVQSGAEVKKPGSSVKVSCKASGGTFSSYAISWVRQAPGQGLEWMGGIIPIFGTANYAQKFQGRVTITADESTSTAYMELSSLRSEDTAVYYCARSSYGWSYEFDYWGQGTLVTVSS
onvatilimab, sequence (light, as listed by the source, chain 2 of 2): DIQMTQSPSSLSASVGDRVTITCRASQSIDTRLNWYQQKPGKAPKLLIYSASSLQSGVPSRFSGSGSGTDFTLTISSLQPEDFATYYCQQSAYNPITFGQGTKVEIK

For “PD-L1 (programmed cell death ligand 1) (from UniProt Q9NZQ7 19-290) (natural protein)”, the EC50 in the assay with atezolizumab was 0.07 nM.

“VISTA (V-type immunoglobulin suppressor of T-cell activation) (from UniProt Q9H7M9 33-311) (natural protein)” gave an EC50 with onvatilimab of 0.0001 nM.

Broadly, the EC50 is the concentration at which the effect is half-maximal. A higher EC50 goes with a need for much substance.
